Where no end group is shown, it is not given here.
Assay: First-order nonenzymatic deamidation of pentapeptides in Tris buffer
Format: physicochemical
Conditions: 0.15 M Tris HCl; for First-Order Deamidation Halftimes of GlyXxxAsnYyyGly: pH 7.4, 37.0° C., Asn pentapeptides; for First-Order Deamidation Halftimes of GlyXxxGlnYyyGly: pH 7.4, 37.0 ° C., Gln pentapeptides, 52 values measured, rest derived from surface fitting
Procedure: One of the discoveries made was that the sequence dependence of deamidation is much richer and covers a wider range than previously thought. In 37° C., pH 7.4, 0.15 M Tris buffer, the combination of XxxAsnYyy and XxxGlnYyy sequences where Xxx and Yyy are any of the naturally occuring amino acids covers a range from less than 1 day to over 15,000 days with the entire range in between available.
It is based on pentapeptide rates measure in 37° C., pH 7.4, 0.15 M Tris buffer. The applicability of a pentapeptide model to sequence dependence was verified in a separate set of experiments. All values listed in this table are experimental except for the four values in boxes, which were estimated from the rest of the data.
It is also based on pentapeptide rates measure in 37° C., pH 7.4, 0.15 M Tris buffer. In this case, the 52 values shown in bold were measured, and the rest of the values were derived from surface fitting.
Deamidation rates are affected by a wide variety of parameters, including, pH, Temperature, Ionic Strength, and Buffer Ions. These rates are measured under pH and Temperature conditions that are applicable to biological systems. The buffer type and concentration were chosen to minimize ion affects to the extent possible given the experimental limitations. Modification of these conditions will change the rates in Tables 1 and 2. As long as the conditions are not taken to extremes (i.e. high temperature, or strongly acidic or basic conditions) the qualitative sequence dependence should remain the same and the rates reported here can be used with necessary adjustments.

Row | Substance | First-Order Deamidation Halftimes of GlyXxxAsnYyyGly [days] | First-Order Deamidation Halftimes of GlyXxxGlnYyyGly [days]
1 | GlyMetAsnCysGly (GMNCG; printed: GlyMetAsnCysGly) | 49.6 | –
2 | GlyAlaAsnIleGly (GANIG; printed: GlyAlaAsnIleGly) | 300 | –
3 | GlyValGlnProGly (GVQPG; printed: GlyValGlnProGly) | – | 8500
4 | GlyTyrGlnTyrGly (GYQYG; printed: GlyTyrGlnTyrGly) | – | 14000
5 | GlyTrpGlnTyrGly (GWQYG; printed: GlyTrpGlnTyrGly) | – | 14000
6 | GlyValGlnPheGly (GVQFG; printed: GlyValGlnPheGly) | – | 7200
7 | GlyHisGlnAspGly (GHQDG; printed: GlyHisGlnAspGly) | – | 5600
8 | GlyHisAsnSerGly (GHNSG; printed: GlyHisAsnSerGly) | 15.7 | –
9 | GlyTyrAsnAmCysGly | 33.3 | –
10 | GlyMetAsnAmCysGly | 33.8 | –
11 | GlyPheGlnArgGly (GFQRG; printed: GlyPheGlnArgGly) | – | 7200
12 | GlyValGlnLeuGly (GVQLG; printed: GlyValGlnLeuGly) | – | 5500
13 | GlyThrGlnGlyGly (GTQGG; printed: GlyThrGlnGlyGly) | – | 670
14 | GlyHisAsnAspGly (GHNDG; printed: GlyHisAsnAspGly) | 31.2 | –
15 | GlyAspGlnTrpGly (GDQWG; printed: GlyAspGlnTrpGly) | – | 17000
16 | GlyHisAsnHisGly (GHNHG; printed: GlyHisAsnHisGly) | 10.7 | –
17 | GlyThrAsnTyrGly (GTNYG; printed: GlyThrAsnTyrGly) | 80.6 | –
18 | GlyCysGlnTrpGly (GCQWG; printed: GlyCysGlnTrpGly) | – | 9100
19 | GlyPheGlnValGly (GFQVG; printed: GlyPheGlnValGly) | – | 7100
20 | GlyTyrAsnSerGly (GYNSG; printed: GlyTyrAsnSerGly) | 11.9 | –
21 | GlyAspGlnPheGly (GDQFG; printed: GlyAspGlnPheGly) | – | 8500
22 | GlyIleAsnGlyGly (GINGG; printed: GlyIleAsnGlyGly) | 1.26 | –
23 | GlyAlaGlnValGly (GAQVG; printed: GlyAlaGlnValGly) | – | 6400
24 | GlyGluGlnLysGly (GEQKG; printed: GlyGluGlnLysGly) | – | 4600
25 | GlyIleGlnThrGly (GIQTG; printed: GlyIleGlnThrGly) | – | 5300

Row | Substance | First-Order Deamidation Halftimes of GlyXxxAsnYyyGly [days] | First-Order Deamidation Halftimes of GlyXxxGlnYyyGly [days]
26 | GlyHisGlnValGly (GHQVG; printed: GlyHisGlnValGly) | – | 6800
27 | GlyAspAsnAlaGly (GDNAG; printed: GlyAspAsnAlaGly) | 24.0 | –
28 | GlyAmCysAsnHisGly (CNHG; not fully specified (N-terminus); printed as GlyAmCysAsnHisGly) | 10.9 | –
29 | GlyAlaGlnTyrGly (GAQYG; printed: GlyAlaGlnTyrGly) | – | 10000
30 | GlyGluAsnArgGly (GENRG; printed: GlyGluAsnArgGly) | 80.9 | –
31 | GlyAspGlnGlyGly (GDQGG; printed: GlyAspGlnGlyGly) | – | 800
32 | GlyPheAsnAmCysGly | 29.8 | –
33 | GlyAlaAsnValGly (GANVG; printed: GlyAlaAsnValGly) | 254 | –
34 | GlyTyrAsnIleGly (GYNIG; printed: GlyTyrAsnIleGly) | 306 | –
35 | GlyHisAsnIleGly (GHNIG; printed: GlyHisAsnIleGly) | 327 | –
36 | GlyArgGlnProGly (GRQPG; printed: GlyArgGlnProGly) | – | 8100
37 | GlyLeuAsnHisGly (GLNHG; printed: GlyLeuAsnHisGly) | 10.7 | –
38 | GlyTrpGlnCysGly (GWQCG; printed: GlyTrpGlnCysGly) | – | 2300
39 | GlyTyrAsnTrpGly (GYNWG; printed: GlyTyrAsnTrpGly) | 120 | –
40 | GlyThrAsnThrGly (GTNTG; printed: GlyThrAsnThrGly) | 50.0 | –
41 | GlyValAsnProGly (GVNPG; printed: GlyValAsnProGly) | 8030 | –
42 | GlyAlaGlnAspGly (GAQDG; printed: GlyAlaGlnAspGly) | – | 7400
43 | GlyProGlnCysGly (GPQCG; printed: GlyProGlnCysGly) | – | 1600
44 | GlyProGlnTrpGly (GPQWG; printed: GlyProGlnTrpGly) | – | 13000
45 | GlySerAsnArgGly (GSNRG; printed: GlySerAsnArgGly) | 59.7 | –
46 | GlyGluAsnValGly (GENVG; printed: GlyGluAsnValGly) | 268 | –
47 | GlyAlaAsnTyrGly (GANYG; printed: GlyAlaAsnTyrGly) | 73.9 | –
48 | GlyValGlnThrGly (GVQTG; printed: GlyValGlnThrGly) | – | 4300
49 | GlyTyrGlnHisGly (GYQHG; printed: GlyTyrGlnHisGly) | – | 7400
50 | GlyCysGlnCysGly (GCQCG; printed: GlyCysGlnCysGly) | – | 800

Row | Substance | First-Order Deamidation Halftimes of GlyXxxAsnYyyGly [days] | First-Order Deamidation Halftimes of GlyXxxGlnYyyGly [days]
51 | GlyArgAsnAlaGly (GRNAG; printed: GlyArgAsnAlaGly) | 24.4 | –
52 | GlyIleGlnArgGly (GIQRG; printed: GlyIleGlnArgGly) | – | 7200
53 | GlyIleAsnAmCysGly | 33.0 | –
54 | GlyGluGlnTrpGly (GEQWG; printed: GlyGluGlnTrpGly) | – | 17000
55 | GlyIleAsnPheGly (GINFG; printed: GlyIleAsnPheGly) | 61.5 | –
56 | GlyAlaGlnGluGly (GAQEG; printed: GlyAlaGlnGluGly) | – | 7300
57 | GlyLysGlnGluGly (GKQEG; printed: GlyLysGlnGluGly) | – | 5400
58 | GlyLysAsnValGly (GKNVG; printed: GlyLysAsnValGly) | 246 | –
59 | GlyPheAsnLeuGly (GFNLG; printed: GlyPheAsnLeuGly) | 118 | –
60 | GlyValAsnAlaGly (GVNAG; printed: GlyValAsnAlaGly) | 27.5 | –
61 | GlyThrAsnPheGly (GTNFG; printed: GlyThrAsnPheGly) | 76.4 | –
62 | GlyAspGlnMetGly (GDQMG; printed: GlyAspGlnMetGly) | – | 5200
63 | GlyHisGlnThrGly (GHQTG; printed: GlyHisGlnThrGly) | – | 5500
64 | GlyAmCysAsnGluGly (CNEG; not fully specified (N-terminus); printed as GlyAmCysAsnGluGly) | 45 | –
65 | GlyLeuAsnGluGly (GLNEG; printed: GlyLeuAsnGluGly) | 56.7 | –
66 | GlySerGlnGluGly (GSQEG; printed: GlySerGlnGluGly) | – | 8100
67 | GlyLysAsnMetGly (GKNMG; printed: GlyLysAsnMetGly) | 60.9 | –
68 | GlyLysGlnHisGly (GKQHG; printed: GlyLysGlnHisGly) | – | 6100
69 | GlyPheAsnMetGly (GFNMG; printed: GlyPheAsnMetGly) | 58.6 | –
70 | GlyTyrGlnValGly (GYQVG; printed: GlyTyrGlnValGly) | – | 8000
71 | GlyTyrAsnAlaGly (GYNAG; printed: GlyTyrAsnAlaGly) | 24.3 | –
72 | GlyThrAsnGlyGly (GTNGG; printed: GlyThrAsnGlyGly) | 1.04 | –
73 | GlyIleGlnTyrGly (GIQYG; printed: GlyIleGlnTyrGly) | – | 12000
74 | GlyIleAsnTyrGly (GINYG; printed: GlyIleAsnTyrGly) | 79.3 | –

Reference: patent US20050118674A1, “Engineering of Controlled Deamidation Rates in Peptides, Proteins, and Similar Structures” (priority 2003, published 2005)
